Experiments:
14-3-3 ε = 14-3-3 ε (UniProt P62258); assay: GFP-Trap co-IP, Myc immunoblot; conditions: reference: wild type
14-3-3 ζ = 14-3-3 ζ (UniProt P63104); assay: GFP-Trap co-IP, Myc immunoblot; conditions: reference: wild type

| Substance | binding against the reference (14-3-3 ε; sites S411) | binding against the reference (14-3-3 ζ; sites S411) | binding against the reference (14-3-3 ε; sites S395) | binding against the reference (14-3-3 ζ; sites S395) |
| --- | --- | --- | --- | --- |
| E2F7 (from UniProt Q6S7F2) S411A | lost | lost |  |  |
| E2F8 (from UniProt Q58FA4) S395A |  |  | lost | lost |

From publication PMC5830916
